{"source": "patent US20060222641A1", "about": "“Method and composition for preventing or reducing edema, deep vein thrombosis and/or pulmonary embolism” (priority 2003, published 2006)", "origin": "cited, not measured here", "system": "fibrinolytic activity in the plasma", "conditions": "oral administration", "data": [{"molecule": "nattokinase: serine proteinase of approximately 275 amino acids, approximately 27.7 kDa, fibrinolytic enzyme from natto (Bacillus subtilis) (protein, Bacillus Subtilis) AQSVPYGISQIKAPALHSQGYTGSNVKVAVIDSGIDSSHPDLNVRGGASFVPSETNPYQDGSSHGTHVAGTIAALNNSIGVLGVAPSASYAVKVLDSTGSGQYSWIINGIEWAISNNMGVINMSLGGPSGSTALKTVVDKAVSSGIVVAAAAGNEGSSGSSSTVGYPAKYPSTIAVGAVNSSNQRASFSSAGSELDVMAPGVSIQSTLPGGTYGAYNGTSMATPHVAGAAALILSKHPTWTNAQVRDRLESTATYLGNSFYYGKGLINVQAAAQ", "values": [{"measurement": "Fibrinolytic activity in the plasma", "value": "significant enhancement"}]}]}
